Data on four molecules can be found in US12410234B2, “Compositions and methods for retrieving tumor-related antibodies and antigens” (THE TRUSTEES OF THE UNIVERSITY OF PENNSYLVANIA, priority 2018, dated 2025).

For one assay, the system named is QGP1 cells. The experiment in a line: Flow cytometry binding of VLV or VLV-DM1 to QGP1 cells. Here is the method:
(§1) Scale bar: […]. […] Scale bar: […].
(In general: Flow cytometry measures light scatter and fluorescence of single cells or particles in a stream.)

The subject of another assay is BON cells. The experiment in a line: Flow cytometry binding of VLV or VLV-DM1 to BON cells. Also on record: species or system human. On the procedure: as §1
The next assay concerns K562 cells. The experiment in a line: Flow cytometry binding of nanobodies to K562 cells. Set-up: species or system human. The text has this:
(§2) FIGS. 1A-1C are series of images and graphs depicting the steps for generating nanobodies that both differentially bind tumor cells and empower CAR T cells to kill the tumor cells. FIG. 1A: Flow chart of AML specific CAR compatible nanobodies in vivo screening. Llama was immunized with AML cell line THP-1. Nanobody library was generated from the llama PMBC including B cells by molecular cloning. Two rounds of conventional cell-based phage display were applied, which took T-ALL cell line Jurkat or chronic myelogenous leukemia (CML) cell line K-562 as negative absorption, followed by one round of count-selection. The resultant THP-1 specific nanobodies were inserted into a chimeric antigen receptor expressing lenti-vector to generate Nb-CAR library. Human primary T cells were transduced by the Nb-CAR library and injected into THP-1 or K562 borne NSG mice to perform the in vivo selection. Nbs that can adapt T cells to enrich in the tumor were PCR-amplified and sequenced. FIG. 1B: 10 million THP-1 cells or 5 million K562 cells were transplanted into NSG mice subcutaneously, followed by treatment of untransduced (UTD) T cells or Nb-lib-CAR T cells. 2 weeks later, Nbs from tumor infiltrated T cells were isolated and identified by PCR amplification. FIG. 1C: Top 5 frequent Nbs in the THP-1 tumor were listed and tested for their recognition to the THP-1 cells, Jurkat cells, or K-562 cells.

The test system of assay [1] is patient-derived AML cells. The assay is described as follows: Flow analysis of Nb binding to patient derived AML cells. Also on record: species or system human. To be noted: patient AML2844. On the procedure:
FIGS. 5A-5B: Both Nb157 and Nb163 recognized the patient derived AML cells by flow analysis. FIGS. 5C-5D: Both Nb157 and Nb163 CAR T cells specifically killed the patient derived AML cells in vitro in a dose dependent manner. […] In brief, 20 million of Patient derived AML cells were injected into NSG mouse, followed by 3 million of Nb157 CAR T cells or UTD T cells treatment. The survival of mice was monitored. Each group n=10. FIGS. 5F-5I: Patient derived AML in NSG bone marrow and spleen were monitored after Nb157 CAR T cell treatment by staining with anti-human CD45/CD3/CD33, followed by flow cytometry analysis. FIGS. 5J-5K: At the end points of each group of experiment, the mice spleens were harvested and fixed by paraformaldehyde, followed by immunofluorescence staining of the anti-human CD3/CD33 and DAPI (Nuclear).
To further determine whether the Nb157 CAR T cells can also kill the patient-derived AML cells, CD13 expression of the leukemia cells from patient AML2844 was examined. […] Thereafter, the therapeutic effect of the CAR T cells on the mice with the patient-derived AML cells was examined. To this end, the NSG mice were transplanted with the primary AML cells, followed by treatment with either control UTD or Nb157 CAR T cells.

Another assay concerns Jurkat cells. The experiment in a line: Flow cytometry binding of nanobodies to Jurkat cells. Set-up: species or system human.
Text: as §2

The target of assay [2] is T1, human full length aminopeptidase N (APN, aka CD13) (Homo sapiens, UniProt P15144).
T1 construct: expressed in transfected cells; host or cells: HEK293T
T1 sequence (P15144 whole entry): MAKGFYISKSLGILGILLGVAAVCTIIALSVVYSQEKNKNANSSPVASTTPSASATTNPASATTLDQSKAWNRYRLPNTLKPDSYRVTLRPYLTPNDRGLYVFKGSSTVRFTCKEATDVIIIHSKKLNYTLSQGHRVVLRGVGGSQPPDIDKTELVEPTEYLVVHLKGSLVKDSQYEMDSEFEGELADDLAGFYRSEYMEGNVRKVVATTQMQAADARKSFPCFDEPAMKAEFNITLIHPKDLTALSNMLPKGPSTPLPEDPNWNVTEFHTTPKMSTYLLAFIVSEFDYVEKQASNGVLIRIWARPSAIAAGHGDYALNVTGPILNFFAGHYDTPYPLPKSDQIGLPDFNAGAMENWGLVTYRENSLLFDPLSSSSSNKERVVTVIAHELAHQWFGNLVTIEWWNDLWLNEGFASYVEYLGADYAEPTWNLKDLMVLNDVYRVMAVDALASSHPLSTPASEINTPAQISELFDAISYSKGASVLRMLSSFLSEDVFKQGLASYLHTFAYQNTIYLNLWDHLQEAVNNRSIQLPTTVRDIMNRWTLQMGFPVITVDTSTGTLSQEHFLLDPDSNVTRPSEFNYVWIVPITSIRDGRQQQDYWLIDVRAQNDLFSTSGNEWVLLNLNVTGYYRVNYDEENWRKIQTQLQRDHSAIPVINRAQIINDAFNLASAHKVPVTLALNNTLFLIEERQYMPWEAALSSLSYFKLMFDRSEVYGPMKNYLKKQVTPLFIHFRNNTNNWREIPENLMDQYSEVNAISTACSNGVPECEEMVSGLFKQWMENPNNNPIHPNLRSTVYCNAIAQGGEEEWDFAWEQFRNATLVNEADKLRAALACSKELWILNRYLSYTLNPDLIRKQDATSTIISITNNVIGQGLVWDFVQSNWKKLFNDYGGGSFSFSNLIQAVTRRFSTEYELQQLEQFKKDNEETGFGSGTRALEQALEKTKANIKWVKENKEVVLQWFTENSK
The experiment in a line: Flow cytometry of nanobody phage on HEK293T cells transfected with membrane protein cDNA. It counts as binding. To be noted: nanobody-expressing phage. The text has this: (§3) FIGS. 4A-4F are series of images and graphs illustrating the identification of CD13 as a target to kill AML cells by CAR T cells. FIG. 4A: Experiment schema: About 3000 cell membrane protein cDNAs were purified and transfected into HEK293T cells separately, followed by flow analysis with the nanobodies expressing phage and FITC-labeled secondary antibody against phage M13 protein. FIG. 4B: Flow analysis of nanobodies binding to the HEK293T cells with CD13 overexpression. FIG. 4C: CD13 cDNA expression confirmed in HEK293T cells by western blot. FIG. 4D: Western blot to confirm the gRNA/CRISPR guided CD13 knockout effect in THP-1 cells. Three independent gRNAs were transduced into THP-1 separately, followed by puromycin selection and single individual clone expansion. FIG. 4E: Flow analysis of Nb157 or Nb163 binding CD13 knockout THP-1 cells. FIG. 4F: Killing assay of Nbs CAR T cells to the THP-1 wild type (wt) or THP-1 cd13-ko.
To identify the protein antigens of the isolated nanobodies, about 3000 human cell membrane protein cDNAs were prepared and transfected into HEK293T cells individually, followed by flow cytometry detection with the nanobody-expressing phage and FITC-labeled secondary antibody against phage M13 protein (FIG. 4A). […] As a confirmation, human CD13 cDNA expression was also shown by western blot (FIG. 4C). CD13 is preferentially expressed in acute myeloid blast cells.

The test system of assay [3] is other AML cell lines like HL60, NB4, and U937. The experiment in a line: Recognition of other AML cell lines by THP-1 specific Nbs. It counts as binding, human. Here is the method:
FIG. 7 is series of a table and graphs depicting the affinity test of VHHs against variant of AML cell lines and patient derived AMLs. The four THP-1 specific Nbs were tested for their recognition to other AML cell lines. + was <0.5 log shift, ++ was <1.0 log shift, +++ was <1.5 log shift, − was no binding.

Assay [4] deals with CD13 knockout THP-1 cells. The assay is described as follows: Flow analysis of Nb binding to CD13 knockout THP-1 cells. Also on record: species or system human. Conditions: flow cytometry.
Text: as §3
To knockout CD13 in THP-1 cell line, LentiCRISPRv2.0 vector was applied according to the protocol (Sanjana, N. E. et al, (2014) Nature methods 11, 783-784). sgRNA targeting human CD13 were listed as below, sgCD13-1 […] (SEQ ID NO: 14), sgCD13-2 […] (SEQ ID NO: 15), […]. Plasmids were confirmed by sequencing and packaged into lentivirus, followed by infecting THP-1 cells. […]

The test system of assay [5] is THP-1 cells. The assay is described as follows: Flow cytometry binding of nanobodies to THP-1 cells. Also on record: species or system human.
Text: as §2, with “FIG. 1B: 10 million THP-1 cells or 5 million K562 cells were transplanted into NSG mice subcutaneously, followed by treatment of untransduced (UTD) T cells or Nb-lib-CAR T cells. 2 weeks later, Nbs from tumor infiltrated T cells were isolated and identified by PCR amplification. FIG. 1C: Top 5 frequent Nbs in the THP-1 tumor were listed and tested for their recognition to the THP-1 cells, Jurkat cells, or K-562 cells.” left out
FIGS. 6A-6H are series of images and graphs depicting that Nb switch-activated CAR T cells eradicate AML in vivo in a controllable manner. […] The engraftment volumes were monitored by measuring the lengths and widths of the tumors. […] The primary leukemia or CAR T cells in the mouse peripheral blood were monitored by staining with CD33 or CD3 fluorescence labeled antibodies.

The subject of assay [6] is THP-1 cells. The experiment in a line: Killing assay of Nb157-PNE-mediated sCAR system. It counts as cell-based, human. To be noted: sCAR T to THP-1 2:1, 16 hours. The text has this: FIGS. 6A-6H are series of images and graphs depicting that Nb switch-activated CAR T cells eradicate AML in vivo in a controllable manner. FIGS. 6A-6B: Schematic diagram of switchable CAR T system. The Nb157 was expressed and purified by fusing with PNE, a fourteen amino acid peptide, either at N terminal or C terminal of the Nanobody. Primary human T cells were engineered by lentivirus transduction of scFv CAR that recognized PNE specifically. FIG. 6C: Test the affinity of Nb157, Nb157-N-PNE or Nb157-C-PNE against THP-1 cells by flow cytometry analysis. FIG. 6D: Killing assay of Nb157-PNE-mediated sCAR system against THP-1 cells in series of switch concentrations. The ratio of sCAR T to THP-1 was 2:1 and assay was performed after 16 hours incubation. FIG. 6E: 10 million THP-1 cells were transplanted into NSG mice subcutaneously to form the 150 mm^3 of tumors. […] The engraftment volumes were monitored by measuring the lengths and widths of the tumors. […] The primary leukemia or CAR T cells in the mouse peripheral blood were monitored by staining with CD33 or CD3 fluorescence labeled antibodies.
Killing assays were performed as previously described (Cao, L. F. et al. (2010) Cytometry A 77, 534-545). […] Quantification were calculated by either Countbright beads or volume.

In another assay the test system is CD13-/- THP-1 cell lines. The experiment in a line: Killing assay on THP-1 cd13-ko cells. Type of assay: cell-based, human. Conditions: THP-1 cd13-ko vs wild type.
Text: as §3
Killing assays were performed as previously described (Cao, L. F. et al. (2010) Cytometry A 77, 534-545). In brief, target cells were labeled by anti-CD33 (BD) for detecting cell number with flow cytometry analysis or labeled by CellTrace Far Red for tracing cell division. Target cells were incubated with effector T cells for 16 hrs at a series of ratios. […] Quantification were calculated by either Countbright beads or volume. […]

B1: VLV: VHH1 homodimer connected by a linker (protein)
VHH 1: QVQLQESGGGLVQPGGSTRLSCVSSRTFSYYDMGWFRQAPGKEREFVALLSWNGENAEYSDSVMGRFTVSRGNTQNSVNLQMNNLKPEDTGIYYCAVTHGGARSVRSWGQGTQVTVSS
VHH 2: B1 VHH 1
modifications: left off: small tags and cut ends
notes: VHH1 homodimer connected by a linker
For the molecule B1, the “binding to QGP1 cells” value in the assay with QGP1 cells is “but not QGP1 cells”. The “binding to BON cells” value in the assay with BON cells is on record as “bound to BON cells”.

B2: Nb157: THP-1 specific llama nanobody binding CD13, SEQ ID NO: 19 (protein)
VHH: AAQAAQVQLQESGGGLVQPGGSLSLSCTASGFTFSSYSMAWVRQAPGKGPEWVSGIYPSDGKTRYADFVKGRFSISRDNAKNMLYLQMNNLEPEDTALYYCARGITGLGPRGQGTQVTVSSAA
modifications: VHH157
On to B2, for which the “binding to K562 cells” value with K562 cells is listed as “but not Jurkat or K562 cells”. In [1], the “recognition of patient-derived AML cells” value was “detected the CD13 expression on the primary AML cells”. In the assay with Jurkat cells, the “binding to Jurkat cells” value is recorded as “but not Jurkat or K562 cells”. Also, in [2], the “binding to cells transfected with human CD13” value is reported as “bound the cells transfected with human full length aminopeptidase N”. Besides, in assay [3], the “binding to other AML cell lines” value was “also bound other AML cell lines like HL60, NB4, and U937”. Further, the “binding after CD13 knockout in THP-1” value in assay [4] is “CD13 knockout abrogated the binding”. Further, in the assay on THP-1 cells [5], the “binding to THP-1 cells” value is “specifically bound THP-1 cells”.

B3: Nb157-N-PNE: Nb157 with N-terminal PNE; inducible nanobody switch (protein)
chain: B2 VHH
modifications: left off: small tags and cut ends
notes: Nb157 with N-terminal PNE; inducible nanobody switch
B3: the “switch-triggered killing of THP-1 cells by sCAR T cells” value in the assay with THP-1 cells [6] is recorded as “slightly reduced the cytolysis-inducing activity”.

B4: Nb163: THP-1 specific llama nanobody binding CD13, SEQ ID NO: 24 (protein)
VHH: AAQAAQVQLQESGGGLVQPGGSLRLSCVPSGFTFDGYLIGWFRQAPGSERKAVSCISVNGDRTNYADSVKGRFTISRDNAKNTVYLQMNSLRPNDTAIYYCATRRGNRLYNNNCPYFEYGTWGQGTQVTVSSAA
modifications: VHH163
Consider B4, for which the “killing of target cells after CD13 knockout” value in the assay with CD13-/- THP-1 cell lines is given as “diminished the killing of Nb163 to the targets significantly, but cannot abrogated the effect completely”. For the same molecule, the “binding to K562 cells” value with K562 cells is reported as “but not Jurkat or K562 cells”. Moreover, the “recognition of patient-derived AML cells” value in assay [1] is given as “detected the CD13 expression on the primary AML cells”. Besides, in the assay on Jurkat cells, the “binding to Jurkat cells” value is reported as “but not Jurkat or K562 cells”. For the same molecule, in assay [2], the “binding to cells transfected with human CD13” value was “bound the cells transfected with human full length aminopeptidase N”. For the same molecule, the “binding to other AML cell lines” value in [3] was “also bound other AML cell lines like HL60, NB4, and U937”. Moreover, in [4], the “binding after CD13 knockout in THP-1” value is recorded as “CD13 knockout abrogated the binding”. In the assay on THP-1 cells [5], the “binding to THP-1 cells” value is given as “specifically bound THP-1 cells”.
